These results are taken from patent US4605614A, “Method for measuring plasmin” (Nitto Boseki Co., Ltd., priority 1981, dated 1986).

Holding throughout (assay): Km, Vmax and Vmax/Km of substrates for plasmin (pig)
Holding throughout (format): biochemical, Porcine (pig)

Substrate in series [1]: CC(C)C[C@H](NC(=O)[C@H](N)C(C)C)C(=O)N[C@@H](CCCCN)C(=O)Nc1ccc([N+](=O)[O-])cc1
Substrate in series [2]: Cc1ccc(CCNC(=O)CC[C@@H](N)C(=O)N[C@@H](Cc2ccccc2)C(=O)N[C@@H](CCCCN)C(=O)Nc2ccc(O)c(C(=O)O)c2)cc1
The conditions noted are these: other: TABLE 2, CHA substrates, plasmin (pig), 2,6-xylenol 615 nm.

Substrate in series [3]: Cc1ccc(S(=O)(=O)Oc2ccc(C[C@@H](N)C(=O)N[C@@H](CC(C)C)C(=O)N[C@@H](CCCCN)C(=O)Nc3ccc(O)c(C(=O)O)c3)cc2)cc1
The conditions noted are these: other: TABLE 2, CHA substrates, plasmin (pig), 2,6-xylenol 615 nm.

Substrate in series [4]: NCCCC[C@H](NC(=O)[C@H](Cc1ccccc1)NC(=O)[C@H](N)CCC(=O)NCCc1ccccc1)C(=O)Nc1ccc([N+](=O)[O-])cc1
The conditions noted are these: other: TABLE 1, PNA substrates, plasmin (pig), 405 nm.

Substrate in series [5]: Cc1ccc(C(=O)NCCCC[C@@H](N)C(=O)N[C@@H](Cc2ccccc2)C(=O)N[C@@H](CCCCN)C(=O)Nc2ccc([N+](=O)[O-])cc2)cc1
The conditions noted are these: other: TABLE 1, PNA substrates, plasmin (pig), 405 nm.

Substrate in series [6]: Cc1ccc(S(=O)(=O)NCCCC[C@H](N)C(=O)N[C@@H](Cc2ccccc2)C(=O)N[C@@H](CCCCN)C(=O)Nc2ccc(O)c(C(=O)O)c2)cc1
The conditions noted are these: other: TABLE 2, CHA substrates, plasmin (pig), 2,6-xylenol 615 nm.

Substrate in series [7]: CC(=O)NCCCC[C@@H](N)C(=O)N[C@@H](Cc1ccccc1)C(=O)N[C@@H](CCCCN)C(=O)Nc1ccc(O)c(C(=O)O)c1
The conditions noted are these: other: TABLE 2, CHA substrates, plasmin (pig), 2,6-xylenol 615 nm.

Substrate in series [8]: Cc1ccc(S(=O)(=O)NCCC[C@@H](N)C(=O)N[C@@H](Cc2ccccc2)C(=O)N[C@@H](CCCCN)C(=O)Nc2ccc(O)c(C(=O)O)c2)cc1
The conditions noted are these: other: TABLE 2, CHA substrates, plasmin (pig), 2,6-xylenol 615 nm.

Substrate in series [9]: Cc1ccc(CCNC(=O)CC[C@@H](N)C(=O)N[C@@H](Cc2ccccc2)C(=O)N[C@@H](CCCCN)C(=O)Nc2ccc([N+](=O)[O-])cc2)cc1
The conditions noted are these: other: TABLE 1, PNA substrates, plasmin (pig), 405 nm.

Substrate in series [10]: Cc1ccc(S(=O)(=O)Oc2ccc(C[C@@H](N)C(=O)N[C@@H](Cc3ccccc3)C(=O)N[C@@H](CCCCN)C(=O)Nc3ccc(O)c(C(=O)O)c3)cc2)cc1
The conditions noted are these: other: TABLE 2, CHA substrates, plasmin (pig), 2,6-xylenol 615 nm.

Substrate in series [11]: NCCCC[C@H](NC(=O)[C@H](Cc1ccccc1)NC(=O)[C@H](N)CCCCNC(=O)OCc1ccccc1)C(=O)Nc1ccc(O)c(C(=O)O)c1
The conditions noted are these: other: TABLE 2, CHA substrates, plasmin (pig), 2,6-xylenol 615 nm.

Substrate in series [12]: Cc1ccc(S(=O)(=O)NCCCC[C@@H](N)C(=O)N[C@@H](Cc2ccccc2)C(=O)N[C@@H](CCCCN)C(=O)Nc2ccc(O)c(C(=O)O)c2)cc1
The conditions noted are these: other: TABLE 2, CHA substrates, plasmin (pig), 2,6-xylenol 615 nm.

Substrate in series [13]: Cc1ccc(C(=O)NCCCC[C@@H](N)C(=O)N[C@@H](Cc2ccccc2)C(=O)N[C@@H](CCCCN)C(=O)Nc2ccc(O)c(C(=O)O)c2)cc1
The conditions noted are these: other: TABLE 2, CHA substrates, plasmin (pig), 2,6-xylenol 615 nm.

Substrate in series [14]: Cc1ccc(S(=O)(=O)NCCCC[C@@H](N)C(=O)N[C@@H](Cc2ccccc2)C(=O)N[C@@H](CCCCN)C(=O)Nc2ccc([N+](=O)[O-])cc2)cc1
Substrate in series [15]: CC(C)[C@@H](N)C(=O)N[C@@H](Cc1ccccc1)C(=O)N[C@@H](CCCCN)C(=O)Nc1ccc(O)c(C(=O)O)c1
The conditions noted are these: other: TABLE 2, CHA substrates, plasmin (pig), 2,6-xylenol 615 nm.

Substrate in series [16]: NCCCC[C@H](NC(=O)[C@H](Cc1ccccc1)NC(=O)[C@H](N)CCC(=O)NCCCCc1ccccc1)C(=O)Nc1ccc([N+](=O)[O-])cc1
The conditions noted are these: other: TABLE 1, PNA substrates, plasmin (pig), 405 nm.

Substrate in series [17]: NCCCC[C@@H](N)C(=O)N[C@@H](Cc1ccccc1)C(=O)N[C@@H](CCCCN)C(=O)Nc1ccc(O)c(C(=O)O)c1
The conditions noted are these: other: TABLE 2, CHA substrates, plasmin (pig), 2,6-xylenol 615 nm.

[18] abbreviates: other: Porcine Plasmin, comparison table in description.
The mark [19] stands for this setting: other: TABLE 1, PNA substrates, plasmin (pig), 405 nm.

B1: plasmin (pig) (Sus scrofa) (protein)
chain: RIYLSECKTGNGKNYRGTTSKTKSGVICQKWSVSSPHIPKYSPEKFPLAGLEENYCRNPDNDEKGPWCYTTDPETRFDYCDIPECEDECMHCSGEHYEGKISKTMSGIECQSWGSQSPHAHGYLPSKFPNKNLKMNYCRNPDGEPRPWCFTTDPNKRWEFCDIPRCTTPPPTSGPTYQCLKGRGENYRGTVSVTASGHTCQRWSAQSPHKHNRTPENFPCKNLEENYCRNPDGETAPWCYTTDSEVRWDYCKIPSCGSSTTSTEYLDAPVPPEQTPVAQDCYRGNGESYRGTSSTTITGRKCQSWVSMTPHRHEKTPGNFPNAGLTMNYCRNPDADKSPWCYTTDPRVRWEYCNLKKCSETEQQVTNFPAIAQVPSVEDLSEDCMFGNGKRYRGKRATTVAGVPCQEWAAQEPHRHSIFTPETNPRAGLEKNYCRNPDGDDNGPWCYTTNPQKLFDYCDVPQCVTSSFDCGKPKVEPKKCPARVVGGCVSIPHSWPWQISLRHRYGGHFCGGTLISPEWVLTAKHCLEKSSSPSSYKVILGAHEEYHLGEGVQEIDVSKLFKEPSEADIALLKLSSPAIITDKVIPACLPTPNYVVADRTACYITGWGETKGTYGAGLLKEARLPVIENKVCNRYEYLGGKVSPNELCAGHLAGGIDSCQGDSGGPLVCFEKDKYILQGVTSWGLGCALPNKPGVYVRVSRFVTWIEEIMRRN
The Km is the concentration of substrate that gives half-maximal velocity. B1: the Km in series [1] (setting [18]) came out at 348 µM; in series [1] (setting [19]) it was 348 µM; in series [2] it was 417 µM; in [3] it was 1440 µM; in series [4], 27.9 µM; in series [5] it was 15.5 µM. In addition, the Km came to 292 µM in [6]; 250 µM in [7]; 542 µM in [8]; 39.4 µM in series [9]; 154 µM in series [10]; 496 µM in series [11]. Besides, the Km in [12] came out at 206 µM; in [13] it was 76.2 µM; in series [14] (setting [18]), 16 µM; in [14] (setting [19]), 15.8 µM; in [15], 631 µM; in series [16], 45.4 µM. Besides, in series [17], the Michaelis-Menten constant (Km) is 222 µM.
